Data taken from US20030059436A1, “Band 3 antigenic peptides, malaria polypeptides and uses thereof” (priority 2001, published 2003).
Ends that are not written are not given here.

Legend:
[1] = target: mouse erythroid Band 3 protein on wild-type mouse RBCs (mouse) (UniProt P04919); assay: 32P-MSP119 on intact mouse RBCs in suspension; RBCs treated with chymotrypsin 40 min, against untreated RBCs
[2] = target: human erythroid Band 3 protein (Anion Exchanger 1) on human RBCs (human) (UniProt P02730); assay: 32P-MSP119 on intact human RBCs in suspension; RBCs treated with neuraminidase, against untreated RBCs
[3] = target: mouse erythroid Band 3 protein on wild-type mouse RBCs (mouse) (UniProt P04919); assay: 32P-MSP119 on intact Band 3 (-/-) mouse RBCs against untreated wild-type mouse RBCs in suspension
[4] = target: mouse erythroid Band 3 protein on wild-type mouse RBCs (mouse) (UniProt P04919); assay: 32P-MSP119 on intact mouse RBCs in suspension; RBCs treated with neuraminidase, against untreated RBCs
[5] = target: human erythroid Band 3 protein (Anion Exchanger 1) on human RBCs (human) (UniProt P02730); assay: 32P-MSP119 on intact human RBCs in suspension; RBCs treated with chymotrypsin 40 min, against untreated RBCs
[6] = target: human erythroid Band 3 protein (Anion Exchanger 1) on human RBCs (human) (UniProt P02730); assay: 32P-MSP119 on intact human RBCs in suspension; RBCs treated with chymotrypsin 10 min, against untreated RBCs
GST-5ABC = target: T1, GST-5ABC (Homo sapiens, UniProt P02730); assay: Native MSP1 binding to GST-5ABC beads; details: Triton X-100 parasite extract, 22-24 h at 4° C.; GST beads as control
T1 construct: The 5ABC (amino acid 720-761), 5BC (731-761), and 6AB (807-842) genes were amplified from a human reticulocyte cDNA library; made in house; host or cells: E. coli (pGEX-2TK)
T1 sequence (P02730 720-761): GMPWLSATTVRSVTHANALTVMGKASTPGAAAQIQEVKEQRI

RBCs = details: literature reports; cited from earlier work
GST-MSP138 = assay: Solution-binding assay, GST-MSP138 on beads; set-up: species or system P. falciparum (FCB1 strain); details: 32P-labeled 5BC 21, 42, 84, 168 μM
Source text: (§1) MSP138 (SEQ ID NO:33), MSP142 (SEQ ID NO:34), and MSP119 (SEQ ID NO:35) genes were amplified from a P. falciparum (FCB1 strain) cDNA library (J. B. Dame) by PCR using the following primers: 5′-[…] (SEQ ID NO: 14, MSP138, sense, 3121-3133, Xhol), 5′-[…] (SEQ ID NO:15, MSP138, antisense, 4200-4193, NotI), 5′-[…] (SEQ ID NO:16, MSP142, sense, 4201-4218, XhoI), 5′-[…] (SEQ ID NO:17, MSP142, antisense, 5334-5321 NotI), 5′-[…]: (SEQ ID NO:18, MSP119, sense, 4993-5009 BamHI), 5′-[…] (SEQ ID NO:19, MSP119, antisense, 5334-5318, EcoRI). Similar cDNA libraries as well as CDNA pools are available to the public from MR4, ATCC (www.malaria.atcc.org).
(§2) Primers: 5′-[…] […] (SEQ ID NO:26, 6AB, antisense, 2640-2620, EcoRI).

GST-MSP142 = target: T2, GST-MSP142 (Plasmodium falciparum, UniProt P04933); assay: Solution-binding assay, GST-MSP142 on beads; set-up: species or system P. falciparum (FCB1 strain)
T2 construct: amino acids 1264-1639; made in house; host or cells: E. coli DH5α (pGEX6P-2)
Source text: as §1, §2

[7] = target: GST-MSP142 (P. falciparum FCB1 MSP1 42 kDa fragment as GST fusion protein) (Plasmodium falciparum (FCB1 strain)) [GST: P08515]; assay: solution-binding assay, 32P-labeled peptide on GST fusion beads
[8] = target: GST-MSP138 (P. falciparum FCB1 MSP1 38 kDa fragment as GST fusion protein, C-terminal truncated forms) (Plasmodium falciparum (FCB1 strain)) [GST: P08515]; assay: as above
[9] = target: T3, SV40 large T-antigen fused to GAL4 AD (pGADT7 vector), two-hybrid control (UniProt P03070 86-708); assay: yeast two-hybrid assay (positive control)
T3 construct: Kit control; also called pGADT7-T

[10] = target: T3, SV40 large T-antigen fused to GAL4 AD …; assay: yeast two-hybrid assay (negative control)
[11] = system: mouse RBCs fixed in methanol; details: GST-MSP142 1 μM, GST-MSP138 8 μM
Description: (§3) RBCs freshly collected into citrate phosphate dextrose buffer were washed (3×) and resuspended in RPMI (20% hematocrit). Thin smears of RBCs on glass slides were allowed to air-dry and fixed in methanol (20-30 sec). The slides were washed with PBS (1×), blocked with 10% fetal bovine serum (FBS) in PBS (pH 7.4) for 1.5 h at 37° C., and again washed with PBS (5×, 10 min each). Fixed cells were incubated with GST-MSP142 (1 μM), GST-MSP138 (8 μM), or GST (9 μM) for 3.5 h at 37° C. in 10% FBS. Slide samples were washed with PBS (5×), incubated with goat anti-GST antibody (1:1,000, Amersham Pharmacia Biotech), washed again (5×), and incubated with rabbit anti-goat FITC-conjugated antibody (1:60, Sigma-Aldrich, St. Louis, Mo.). For visualizing spectrin, fixed cells treated with 10% FBS were incubated with a rabbit antibody raised against human spectrin (Sigma-Aldrich) followed by goat anti-rabbit FITC-conjugated antibody. All dilutions of proteins and antibodies were made in 10% FBS except FITC-conjugated antibodies.
(§4) First, the above-described RBC binding assay was performed using ^32P-labeled MSP119 and intact Band 3 (−/−) mouse RBCs in suspension. […] In the second method, we carried out an indirect immunofluorescence assay (IFA) using wild-type human and mouse RBCs and Band 3 (−/−) mouse RBCs fixed in methanol.

[12] = system: human RBCs fixed in methanol; details: GST-MSP142 1 μM, GST-MSP138 8 μM; GST alone did not bind
Description: as §3, §4

human erythroid Band 3 protein (Anion Exchanger 1) on human RBCs (human), sequence (P02730 whole entry, form in doubt): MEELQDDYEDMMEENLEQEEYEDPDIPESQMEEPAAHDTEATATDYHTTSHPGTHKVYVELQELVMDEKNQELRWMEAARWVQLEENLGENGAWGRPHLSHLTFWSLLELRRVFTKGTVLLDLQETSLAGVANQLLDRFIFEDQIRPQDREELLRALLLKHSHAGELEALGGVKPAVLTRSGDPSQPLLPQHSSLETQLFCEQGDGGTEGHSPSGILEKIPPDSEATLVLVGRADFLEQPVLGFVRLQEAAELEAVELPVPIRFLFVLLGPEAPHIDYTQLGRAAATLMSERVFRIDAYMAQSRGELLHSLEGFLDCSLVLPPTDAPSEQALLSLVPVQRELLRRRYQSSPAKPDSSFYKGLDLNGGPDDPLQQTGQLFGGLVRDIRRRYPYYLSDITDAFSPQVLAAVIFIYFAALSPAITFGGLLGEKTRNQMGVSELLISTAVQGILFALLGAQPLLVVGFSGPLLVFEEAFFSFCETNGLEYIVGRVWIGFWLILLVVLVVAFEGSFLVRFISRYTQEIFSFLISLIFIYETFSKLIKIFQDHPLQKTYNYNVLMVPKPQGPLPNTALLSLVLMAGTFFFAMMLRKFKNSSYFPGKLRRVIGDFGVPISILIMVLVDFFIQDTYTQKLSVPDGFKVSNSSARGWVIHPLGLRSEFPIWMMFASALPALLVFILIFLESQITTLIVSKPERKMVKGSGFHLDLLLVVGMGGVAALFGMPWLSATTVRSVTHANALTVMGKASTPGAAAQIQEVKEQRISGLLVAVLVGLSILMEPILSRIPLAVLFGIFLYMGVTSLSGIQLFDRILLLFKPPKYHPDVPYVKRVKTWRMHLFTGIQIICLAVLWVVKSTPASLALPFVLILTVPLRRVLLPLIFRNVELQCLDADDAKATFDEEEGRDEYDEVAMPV
mouse erythroid Band 3 protein on wild-type mouse RBCs (mouse), sequence (P04919 whole entry): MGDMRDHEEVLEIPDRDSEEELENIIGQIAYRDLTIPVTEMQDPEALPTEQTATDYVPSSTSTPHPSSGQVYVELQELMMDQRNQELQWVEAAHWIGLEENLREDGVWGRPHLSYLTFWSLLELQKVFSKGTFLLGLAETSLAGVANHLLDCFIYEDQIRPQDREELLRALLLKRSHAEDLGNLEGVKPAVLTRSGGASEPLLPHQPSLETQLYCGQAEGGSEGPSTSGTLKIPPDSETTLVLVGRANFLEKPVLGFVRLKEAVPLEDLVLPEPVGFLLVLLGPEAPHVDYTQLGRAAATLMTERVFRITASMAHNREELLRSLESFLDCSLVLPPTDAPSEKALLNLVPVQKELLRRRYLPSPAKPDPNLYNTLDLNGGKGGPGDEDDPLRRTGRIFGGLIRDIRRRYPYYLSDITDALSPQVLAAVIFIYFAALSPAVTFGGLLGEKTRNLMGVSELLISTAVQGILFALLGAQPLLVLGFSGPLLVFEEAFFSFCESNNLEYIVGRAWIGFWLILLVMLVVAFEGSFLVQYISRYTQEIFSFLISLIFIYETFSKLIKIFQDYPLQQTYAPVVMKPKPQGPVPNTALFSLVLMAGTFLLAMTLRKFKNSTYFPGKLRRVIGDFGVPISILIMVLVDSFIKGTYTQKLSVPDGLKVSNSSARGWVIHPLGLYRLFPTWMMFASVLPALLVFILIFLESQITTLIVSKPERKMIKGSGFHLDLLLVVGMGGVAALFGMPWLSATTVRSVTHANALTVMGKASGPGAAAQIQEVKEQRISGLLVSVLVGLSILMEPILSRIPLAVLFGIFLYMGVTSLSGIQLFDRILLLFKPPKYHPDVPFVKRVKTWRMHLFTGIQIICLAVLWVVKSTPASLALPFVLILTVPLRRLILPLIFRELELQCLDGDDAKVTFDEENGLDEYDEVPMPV
T3 sequence (P03070 86-708 limits assumed): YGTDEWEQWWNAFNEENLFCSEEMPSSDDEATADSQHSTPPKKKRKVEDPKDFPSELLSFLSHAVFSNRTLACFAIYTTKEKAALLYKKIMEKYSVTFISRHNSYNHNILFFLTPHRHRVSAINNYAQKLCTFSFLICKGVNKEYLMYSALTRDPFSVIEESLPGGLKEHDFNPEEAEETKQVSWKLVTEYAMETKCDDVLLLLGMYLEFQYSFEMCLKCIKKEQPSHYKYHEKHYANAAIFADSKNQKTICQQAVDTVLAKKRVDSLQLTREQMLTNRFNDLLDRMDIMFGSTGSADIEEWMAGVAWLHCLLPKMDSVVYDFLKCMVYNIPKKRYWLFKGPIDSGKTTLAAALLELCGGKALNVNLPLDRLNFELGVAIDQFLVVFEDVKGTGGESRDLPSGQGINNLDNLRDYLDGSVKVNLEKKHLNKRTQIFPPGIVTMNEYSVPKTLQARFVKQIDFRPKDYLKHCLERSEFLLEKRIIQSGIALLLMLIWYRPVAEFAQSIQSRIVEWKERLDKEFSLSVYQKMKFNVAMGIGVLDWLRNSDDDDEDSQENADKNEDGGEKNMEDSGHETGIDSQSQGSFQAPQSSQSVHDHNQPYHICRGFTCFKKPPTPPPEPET
T2 sequence (P04933 1264-1639): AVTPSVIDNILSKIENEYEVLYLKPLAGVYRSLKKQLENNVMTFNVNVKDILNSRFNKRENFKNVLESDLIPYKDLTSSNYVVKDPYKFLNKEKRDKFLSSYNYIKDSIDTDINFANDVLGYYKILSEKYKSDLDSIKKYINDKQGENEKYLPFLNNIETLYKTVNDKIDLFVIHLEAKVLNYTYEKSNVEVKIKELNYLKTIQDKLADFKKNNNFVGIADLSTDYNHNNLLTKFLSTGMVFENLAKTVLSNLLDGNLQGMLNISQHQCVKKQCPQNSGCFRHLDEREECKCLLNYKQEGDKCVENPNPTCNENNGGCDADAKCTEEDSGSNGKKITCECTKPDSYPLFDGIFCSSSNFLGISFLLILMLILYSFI
GST-MSP142 (P. falciparum FCB1 MSP1 42 kDa fragment as GST fusion protein) (Plasmodium falciparum (FCB1 strain)) [GST: P08515], sequence (P08515 whole entry, the tested form may be a part): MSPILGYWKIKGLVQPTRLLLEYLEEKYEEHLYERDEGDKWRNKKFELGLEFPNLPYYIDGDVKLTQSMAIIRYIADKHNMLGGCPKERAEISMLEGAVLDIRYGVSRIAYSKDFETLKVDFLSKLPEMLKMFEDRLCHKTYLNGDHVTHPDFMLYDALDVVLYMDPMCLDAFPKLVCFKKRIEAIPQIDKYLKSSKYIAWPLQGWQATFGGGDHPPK
GST-MSP138 (P. falciparum FCB1 MSP1 38 kDa fragment as GST fusion protein, C-terminal truncated forms) (Plasmodium falciparum (FCB1 strain)) [GST: P08515], sequence (P08515 whole entry, the tested form may be a part): as above

For “32P-labeled MSP119 (P. falciparum FCB1 MSP1 19 kDa C-terminal fragment, GST removed with thrombin) (ligand)”, the reduction in ability to bind MSP119 as compared to the untreated RBCs [1] was 41%, the increase in ability to bind MSP119 as compared to the untreated RBCs [2] was 52% and the reduction of radioactivity associated with Band 3 (-/-) mouse RBCs as compared to untreated wild-type mouse RBCs [3] was 72%. For the same molecule, the increase in ability to bind MSP119 as compared to the untreated RBCs [4] was 51%, the reduction in ability to bind MSP119 as compared to the untreated RBCs [5] was 37% and the reduction in ability to bind MSP119 as compared to the untreated RBCs [6] was 30%.

For “MSP1: P. falciparum merozoite surface protein-1, native full-length”, the “binding of radiolabeled native parasite protein to GST-5ABC beads” value (GST-5ABC) is listed as “bound specifically to the 5ABC domain” and the “binding to RBCs (earlier studies)” value (RBCs) is listed as “bound to RBCs in sialic acid-dependent manner”.

For “GMPWLSATTVRSVTHANALTVMGKASTPGAAAQIQEVKEQRI (not fully specified) [Peptide 5ABC, Recombinant human Band 3 peptide, amino acid 720-761, expressed as GST or GAL4 DNA-BD fusion]”, the “binding to GST-MSP138 on beads” value (GST-MSP138) was “specifically bound”, the “binding to GST-MSP142 on beads” value (GST-MSP142; 32P-labeled 5ABC 10, 20, 40, 80 μM) was “concentration-dependent manner” and the Kd (GST-MSP142; 32P-labeled peptide, pH 7.4, 25° C., 3.5 h) was 36 µM.

In the case of GMPWLSATTVRSVTHANALTVMGKASTPGAAAQIQEVKEQRI (peptide, not shown: small tags and cut ends, modifications not checked) [32P-labeled 5ABC (recombinant human Band 3 amino acid 720-761, GST removed with thrombin)], the Kd [7] is reported as 36 µM.

SVTHANALTVMGKASTPGAAAQIQEVKEQRI (peptide, not shown: small tags and cut ends, modifications not checked) [32P-labeled 5BC (recombinant human Band 3 amino acid 731-761, GST removed with thrombin)] gave a Kd [8] of 67 µM.

B1: p53 fused to GAL4 DNA-BD (pGBKT7 vector), two-hybrid control (other)
chain: MKLLSSIEQACDICRLKKLKCSKEKPKCAKCLKNNWECRYSPKTKRSPLTRAHLTEVESRLERLEQLFLLIFPREDLDMILKMDSLQDIKALLTGLFVQDNVNKDAVTDRLASVETDMPLTLRQHRISATSSSEESSNKGQRQLTVSPVTETPGPVAPAPATPWPLSSFVPSQKTYQGNYGFHLGFLQSGTAKSVMCTYSPPLNKLFCQLAKTCPVQLWVSATPPAGSRVRAMAIYKKSQHMTEVVRRCPHHERCSDGDGLAPPQHLIRVEGNLYPEYLEDRQTFRHSVVVPYEPPEAGSEYTTIHYKYMCNSSCMGGMNRRPILTIITLEDSSGNLLGRDSFEVRVCACPGRDRRTEEENFRKKEVLCPELPPGSAKRALPTCTSASPPQKKKPLDGEYFTLKIRGRKRFEMFRELNEALELKDAHATEESGDSRAHSSYLKTKKGQSTSRHKKTMVKKVGPDSD
notes: Kit control; also called pGBKT7-53
B1: binds [9].

B2: Lamin C fused to GAL4 DNA-BD (pGBKT7 vector), two-hybrid control (other)
chain: MKLLSSIEQACDICRLKKLKCSKEKPKCAKCLKNNWECRYSPKTKRSPLTRAHLTEVESRLERLEQLFLLIFPREDLDMILKMDSLQDIKALLTGLFVQDNVNKDAVTDRLASVETDMPLTLRQHRISATSSSEESSNKGQRQLTVSSEEVVSREVSGIKAAYEAELGDARKTLDSVAKERARLQLELSKVREEFKELKARNTKKEGDLIAAQARLKDLEALLNSKEAALSTALSEKRTLEGELHDLRGQVAKLEAALGEAKKQLQDEMLRRVDAENRLQTMKEELDFQKNIYSEELRETKRRHETRLVEID
notes: Kit control
B2: no binding [10].

B3: MSP142: 42 kDa proteolytic fragment of P. falciparum MSP1 (FCB1 strain) (protein)
chain: AISVTMDNILSGFENEYDVIYLKPLAGVYRSLKKQIEKNIFTFNLNLNDILNSRLKKRKYFLDVLESDLMQFKHISSNEYIIEDSFKLLNSEQKNTLLKSYKYIKESVENDIKFAQEGISYYEKVLAKYKDDLESIKKVIKEEKEKFPSSPPTTPPSPAKTDEQKKESKFLPFLTNIETLYNNLVNKIDDYLINLKAKINDCNVEKDEAHVKITKLSDLKAIDDKIDLFKNPYDFEAIKKLINDDTKKDMLGKLLSTGLVQNFPNTIISKLIEGKFQDMLNISQHQCVKKQCPENSGCFRHLDEREECKCLLNYKQEGDKCVENPNPTCNENNGGCDADATCTEEDSGSSRKKITCECTKPDSYPLFDGIFCS
In the case of B3, the “binding to Band 3 (−/−) mouse RBCs (IFA)” value [11] is reported as “neither GST-MSP142, GST-MSP138, nor GST alone bound”, the “binding to wild-type mouse RBCs (IFA)” value ([11]; GST alone did not bind) is reported as “bound” and the “binding to wild-type human RBCs (IFA)” value [12] is reported as “bound”. For the same molecule, the “binding of radiolabeled native parasite protein to GST-5ABC beads” value (GST-5ABC) was “bound specifically to the 5ABC domain”.
